B1: COX4I1 (parent)
chain: FDKEWVAKQTKRMLDMKVNPIQGL
B2: ZC3H15 (parent)
chain: RKADFKAGKALVISGREVFEFRPE

Variants of: B1
Test: protein stability index of a GFP-peptide fusion (GPS, HEK-293T) (PSI 1-6); higher = more stable
Conditions: c terminus: a fixed tail appended
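Note: lentivirally expressed fusions sorted by FACS into six bins by GFP to DsRed ratio, PSI derived from sequencing read proportions per bin multiplied by bin number.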

Protein stability index: each site, then its substitutions
G23: I 1.81 | Y 1.92 | E 1.72 | H 1.4 | P 1.39 | V 1.59 | C 3.51 | A 1.43 | D 1.9 | M 1.76 | K 2.02 | Q 2.02 | T 1.77 | N 1.8 | F 2.36 | R 1.48 | L 1.35 | W 1.88 | S 1.7
I21: L 1.64 | F 1.46 | P 1.63 | W 2.17 | R 1.61 | G 1.75 | N 2.21 | A 1.54 | H 2.19 | M 2.63 | S 1.32 | D 1.93 | C 2.6 | T 1.83 | K 2.06 | Q 1.78 | V 1.89 | E 1.66 | Y 1.75
Q22: V 2.58 | P 1.73 | N 1.77 | I 2.79 | C 1.29 | Y 2.13 | S 2.23 | W 1.68 | F 1.73 | R 1.89 | D 2.31 | E 1.71 | T 1.91 | K 1.92 | M 2.69 | H 1.93 | G 1.63 | A 1.93 | L 2.08
P20: E 1.59 | I 1.56 | S 1.55 | H 1.78 | R 1.68 | Y 2.05 | N 1.47 | C 1.73 | T 2.38 | L 1.63 | V 1.73 | G 2.17 | F 1.71 | W 2.4 | D 1.63 | A 1.61 | K 1.55 | Q 1.54 | M 2.08
K17: T 1.83 | G 1.51 | R 1.95 | D 2.49 | Y 2.14 | I 2.3 | S 1.55 | L 2.57 | V 2.03 | E 1.71 | M 1.58 | N 1.88 | F 2.16 | Q 1.41 | P 2.24 | H 1.44 | W 2.4
V18: C 1.88 | P 2.13 | S 1.81 | E 1.95 | W 1.99 | D 1.53 | I 1.65 | N 1.86 | A 1.79 | G 2 | M 1.86 | L 1.72 | R 2.19 | F 1.42 | K 1.19 | H 1.94 | T 2.24 | Q 2.22 | Y 2.87
N19: L 1.26 | P 2.32 | Q 1.64 | C 2.23 | Y 2.55 | T 1.16 | K 1.92 | F 1.77 | D 1.79 | E 1.9 | M 1.97 | H 1.7 | A 1.75 | R 1.71 | W 1.38 | G 1.94 | V 2.22 | I 1.76 | S 1.97
L24: V 1.91 | R 2.09 | Y 1.59 | C 2.19 | E 3.09 | F 1.72 | D 1.84 | G 2.86 | S 2.31 | M 1.74 | P 2.08 | K 1.03 | N 2.28 | A 1.83 | W 1.73 | T 1.35 | I 2.3 | Q 2.45 | H 2.55

Variants of: B2
Test: as above
Conditions: c terminus: a fixed tail appended

Protein stability index of substitutions, site by site:
A3: L 2.57 | E 3.77 | S 2.68 | Y 2.52 | H 2.44 | D 3.7 | N 3.11 | Q 3.06 | M 2.75 | T 3.24 | P 2.95 | I 2.71 | V 2.61
E17: A 1.47 | C 1.71 | Q 1.96 | H 1.9

— the supplement of paper PMC10567573
